Reference: publication PMC10478084, “Use of Epivolve phage display to generate a monoclonal antibody with opsonic activity directed against a subdominant epitope on extracellular loop 4 of Treponema pallidum BamA (TP0326)” (Frontiers in Immunology, 2023)
Like-named read-outs stand apart in the source and are kept apart here. No end group written: not given here. *: point of attachment. Biotin = O=C1N[C@H]2[C@H](CS[C@H]2CCCCC(=O)*)N1

T1: BamA ECL4 peptide S2, native (Treponema pallidum subsp. pallidum, …)
T1 chain: Biotin-RVVKNFYDKDNNQPFDL


Experiments:
[1] = molecular target: T1, BamA ECL4 peptide S2, native
[2] = molecular target: T2, Tp BamA β-barrel (TP0326) (Treponema pallidum subsp. pallidum, …, UniProt O83346)
Target sequence in this assay (O83346 434-837): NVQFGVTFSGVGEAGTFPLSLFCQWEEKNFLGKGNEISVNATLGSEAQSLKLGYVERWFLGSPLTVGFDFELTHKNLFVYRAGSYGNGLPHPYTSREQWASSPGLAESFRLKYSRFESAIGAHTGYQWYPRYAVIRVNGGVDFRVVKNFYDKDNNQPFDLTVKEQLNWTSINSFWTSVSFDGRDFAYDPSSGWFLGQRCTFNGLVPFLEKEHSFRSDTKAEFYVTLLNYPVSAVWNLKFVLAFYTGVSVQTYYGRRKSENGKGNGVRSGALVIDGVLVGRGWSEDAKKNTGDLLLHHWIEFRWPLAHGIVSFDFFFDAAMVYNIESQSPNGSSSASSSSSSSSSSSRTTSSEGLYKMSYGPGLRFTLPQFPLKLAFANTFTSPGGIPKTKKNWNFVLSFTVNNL

[3] = molecular target: T2, Tp BamA β-barrel (TP0326); assay: immunoblot; 200 to 1 ng of PfTrx^BamA/ECL4 or of BamA β-barrel (in 8M urea, Laemmli buffer) resolved by SDS-PAGE, transferred to nitrocellulose, probed with mAb at 4 μg/ml; settings: both partners purified
Target sequence in this assay (O83346 whole entry, looked up): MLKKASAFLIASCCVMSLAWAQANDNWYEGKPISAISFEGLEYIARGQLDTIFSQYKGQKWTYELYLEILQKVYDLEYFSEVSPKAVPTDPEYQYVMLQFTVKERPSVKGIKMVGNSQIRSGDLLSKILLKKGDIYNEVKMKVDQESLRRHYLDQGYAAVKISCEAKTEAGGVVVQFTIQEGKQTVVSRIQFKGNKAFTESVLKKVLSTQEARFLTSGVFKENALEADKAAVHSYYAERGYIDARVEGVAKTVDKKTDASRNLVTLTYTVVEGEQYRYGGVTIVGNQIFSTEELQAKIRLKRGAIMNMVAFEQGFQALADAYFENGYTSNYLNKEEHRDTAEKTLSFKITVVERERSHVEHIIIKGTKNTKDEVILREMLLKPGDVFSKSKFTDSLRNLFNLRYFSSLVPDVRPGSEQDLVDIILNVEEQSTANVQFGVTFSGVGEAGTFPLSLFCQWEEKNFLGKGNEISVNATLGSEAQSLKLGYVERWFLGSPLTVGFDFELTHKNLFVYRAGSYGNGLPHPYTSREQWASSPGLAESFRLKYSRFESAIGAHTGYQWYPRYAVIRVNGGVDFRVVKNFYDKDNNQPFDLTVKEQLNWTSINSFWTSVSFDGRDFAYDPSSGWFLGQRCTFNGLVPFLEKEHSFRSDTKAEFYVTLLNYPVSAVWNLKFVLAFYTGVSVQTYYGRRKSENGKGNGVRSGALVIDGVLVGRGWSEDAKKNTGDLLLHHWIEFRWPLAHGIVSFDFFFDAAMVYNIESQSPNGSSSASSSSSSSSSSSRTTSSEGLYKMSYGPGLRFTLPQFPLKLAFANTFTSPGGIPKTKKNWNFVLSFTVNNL

Binder | binding result [1] | binding result [2] | binding result [3]
IGX7128 (antibody, V domains shown) VH: EVQLVQSGADVKKPGASLTISCQASGYTFTDYWISWVRQKPGKGLEWMGAIAPSTSKTEYGPSFQGHVTISADRSTATAYLQWRSLEASDTAMYYCVRQSAQTDSWGPGTLVTVSS VL: SYELTQPPSVSVSPGQTARITCSGDALPKKYAYWYQQKSGQAPVLVIYEDRKRYSGIPERFSGSSSGTMATLTISGAQVEDEADYYCYSKAAKGNYMVFGGGTKLTVL | binds | binds | 
IGX7134 (antibody, V domains shown) VH: EVQLVQSGAVVKKPGASLTISCQASGYTFTDYWFSWVRQKPGKGLEWMGAIAPSTSKTEYGPSFQGLVTISADRSTATANLQWRSLEASDTAMYYCVRQGAHTDSWGPGTLVTVSS VL: SYELTQPPSVSVSPGQTARITCSGDALPKKYAYWYQQKSGQAPVLVIYEDRKRYSGIPERFSGSSSGTMATLTISGAQVEDEADYYCYSKAAKGNYMVFGGGTKLTVL | binds | binds | 
mAb IGX7137 (antibody, V domains shown, heavy-chain variable region from the Epivolve scFv; mouse IgG2 heavy-chain constant region; light-chain variable region LC2 (shared with IGX7140); mouse light-chain constant domain; Mouse IgG2 with variable regions from the Epivolve scFv; source: HEK293-E, transfected (pTT5), purified from supernatant (Protein A)) VH: EVQLVQSGADVKKPGASLTISCQTSGYTLTDYWISWVRQKPGKGLEWMGAISPANSRTSYGPSFQGHVTFSADRSTATAYLQWRSLEASDTAMYYCVRQGAQTDRWGPGTLVTVSS VL: SYELTQPPSVSVPPGQTARITCSGDALPKKYAYWYQQKSGQAPVLVIYEDMKRPSGIPERFSGSSSGTTATLTISGAQVEDEADYYCYSKAFDGNYFVFGGGTKLTVL |  |  | binds
mAb IGX7140 (antibody, V domains shown, heavy-chain variable region from the Epivolve scFv; mouse IgG2 heavy-chain constant region; light-chain variable region LC2 (as the light chain of m2); mouse light-chain constant domain; Mouse IgG2 with variable regions from the Epivolve scFv; also called IXG7140; source: HEK293-E, transfected (pTT5), purified from supernatant (Protein A)) VH: EVQLVQSGADVKKPGASLTISCQASGYTLTDYWISWVRQKPGKGLEWMGAISPANSRTSYGPSFQGHVTFSADRSTATAYLQWRSLEASDTAMYYCVRQGAQTDRWGPGTLVTVSS VL: SYELTQPPSVSVPPGQTARITCSGDALPKKYAYWYQQKSGQAPVLVIYEDMKRPSGIPERFSGSSSGTTATLTISGAQVEDEADYYCYSKAFDGNYFVFGGGTKLTVL |  |  | binds
mAb IGX7141 (antibody, V domains shown, heavy-chain variable region from the Epivolve scFv; mouse IgG2 heavy-chain constant region; light-chain variable region LC3; mouse light-chain constant domain; Mouse IgG2 with variable regions selected from a human scFv phage library (Epivolve) and matured by error-prone PCR; source: HEK293-E, transfected (pTT5), purified from supernatant (Protein A)) VH: EVQLVQSGADVKKPGASLTISCQASGYTFTDYWISWVRQKPGKGLEWMGAISPANSRTSYGPSFQGHVTFSADRSTATAYLQWRSLEASDTAMYYCVRQGAQTDSWGPGTLVTVSS VL: SYELTQPPSVSVSPGQTARITCSGDALPKKYAYWYQQKSGQAPVLVIYEDMKRPSGIPERFSGSSSGTMATLTISGAQVEDEADYYCYSKASDGNYFVFGGGTKLTVL |  |  | binds
